The Kd is the equilibrium constant for the complex coming apart. A higher Kd goes with lower affinity.

Test [1] concerns the target T1, human complement factor D (CFD) (human, UniProt P00746 26-253, limits assumed).
T1 construct: also called human CFD; adipsin
Briefly: SPR (Biacore), pH 5.5. For orientation: Surface plasmon resonance follows binding to a sensor surface in real time, without labels.

For test [2], the target named is T2, cynomolgus complement factor D (CFD) (cynomolgus monkey).
T2 construct: also called cyno CFD; cynomolgus CFD
Briefly: SPR (Biacore), pH 5.5.

Test [3] has as its target T2, cynomolgus complement factor D (CFD). Briefly: SPR (Biacore), pH 7.4.
In test [4] the target is T1, human complement factor D (CFD). Briefly: SPR (Biacore), pH 7.4; pH 7.4.

T1 sequence (P00746 26-253 limits assumed): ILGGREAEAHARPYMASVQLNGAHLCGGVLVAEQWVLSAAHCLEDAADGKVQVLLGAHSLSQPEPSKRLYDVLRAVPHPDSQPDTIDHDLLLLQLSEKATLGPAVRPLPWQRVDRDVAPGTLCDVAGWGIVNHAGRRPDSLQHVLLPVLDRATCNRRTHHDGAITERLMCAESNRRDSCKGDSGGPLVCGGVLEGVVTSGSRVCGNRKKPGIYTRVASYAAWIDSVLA

B1: anti-CFD antibody 2 (clone 169C8) (antibody, human IgG1, lambda, L234A L235A, V domains shown)
VH: EVQVQESGPGLVKPSQTLSLTCTVSGGSITTSYYAWSWIRQPPGKGLEWMGDIANDGSTYYSPSLESRTSISRDTSKNQFSLQLSSVTPEDTAVYYCARLRSLYTDYDPHYYDYWGQGTQVTVSS
VL: SSALTQPSALSVTKGQTAKITCQGDLLPRHYAHWYQQKTGQAPKLIVYDDDIRPSGIPERFSGSNSGGVATLTIAGAQAEDEADYHCQSADSNDDAVFGGGTHLTVLS
notes: also called anti-CFD mAb 2; ASHE mAb
Turning to B1, the Kd came out at 805 nM in test [1], 4.59 nM in test [2], 0.037 nM in test [3] and 0.002 nM in test [4].

The record behind these values is patent US20240034779A1 (Takeda / Millennium, published 2024).
